Each block holds one substance with its values, some of them ahead of it.
Legend:
[1] = molecular target: mouse IgG (Sigma Chemical Co., product number I5381); test: resonant light scattering; step 1, 2.2 mg/mL E. coli cellular extract proteins on mouse IgG microparticles; against the starting spectra
[2] = molecular target: mouse IgG (Sigma Chemical Co., product number I5381); test: resonant light scattering; step C, 40 µg/mL Fab specific goat anti-mouse IgG on mouse IgG held by Protein G′ microparticles; shift is cumulative against the unbound reference (0.054 nm after step B)
[3] = molecular target: mouse IgG (Sigma Chemical Co., product number I5381); test: resonant light scattering; step 2, 50 µg/mL anti-Alexa rabbit IgG in cell extract background on mouse IgG microparticles; against the starting spectra
[4] = molecular target: avidin (from egg white, Sigma Chemical Co., product number A9275) (UniProt P02701); test: resonant light scattering; step C, 50 µg/mL antibody on avidin held on biotinylated microparticles; shift is cumulative against the unbound reference (avidin step alone 0.031 nm); N=18
Sequence of UniProt P02701 (P02701 25-152 limits assumed): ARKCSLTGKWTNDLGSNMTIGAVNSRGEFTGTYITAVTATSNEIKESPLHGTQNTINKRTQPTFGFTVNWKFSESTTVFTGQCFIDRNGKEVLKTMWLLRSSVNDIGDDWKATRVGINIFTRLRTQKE

[5] = molecular target: Protein G′ (Sigma Chemical Co. product P-4689) (group G Streptococcal strain) (UniProt P19909); test: resonant light scattering, real time; 50 µg/mL mouse IgG on Protein G′ microparticles; time 20 min
[6] = molecular target: Protein G′ (Sigma Chemical Co. product P-4689) (group G Streptococcal strain) (UniProt P19909); test: resonant light scattering, real time; 50 µg/mL mouse IgG on Protein G′ microparticles; time 5 min
[7] = molecular target: Protein G′ (Sigma Chemical Co. product P-4689) (group G Streptococcal strain) (UniProt P19909); test: resonant light scattering, real time; 10 µg/mL mouse IgG on Protein G′ microparticles; time 16 min
[8] = molecular target: Protein G′ (Sigma Chemical Co. product P-4689) (group G Streptococcal strain) (UniProt P19909); test: resonant light scattering, real time; 10 µg/mL mouse IgG on Protein G′ microparticles; time 50 min
[9] = molecular target: Protein G′ (Sigma Chemical Co. product P-4689) (group G Streptococcal strain) (UniProt P19909); test: resonant light scattering, real time; 10 µg/mL mouse IgG on Protein G′ microparticles; time 60 min
[10] = molecular target: Protein G′ (Sigma Chemical Co. product P-4689) (group G Streptococcal strain) (UniProt P19909); test: resonant light scattering, real time; 50 µg/mL mouse IgG on Protein G′ microparticles; time 0 min (reference)
[11] = molecular target: Protein G′ (Sigma Chemical Co. product P-4689) (group G Streptococcal strain) (UniProt P19909); test: resonant light scattering, real time; 10 µg/mL mouse IgG on Protein G′ microparticles; time 11 min
[12] = molecular target: Protein G′ (Sigma Chemical Co. product P-4689) (group G Streptococcal strain) (UniProt P19909); test: resonant light scattering, real time; 10 µg/mL mouse IgG on Protein G′ microparticles; time 25 min
[13] = molecular target: Protein G′ (Sigma Chemical Co. product P-4689) (group G Streptococcal strain) (UniProt P19909); test: resonant light scattering, real time; 500 µg/mL mouse IgG on Protein G′ microparticles; time 20 min
[14] = molecular target: Protein G′ (Sigma Chemical Co. product P-4689) (group G Streptococcal strain) (UniProt P19909); test: resonant light scattering, real time; 500 µg/mL mouse IgG on Protein G′ microparticles; time 0 min (reference)
[15] = molecular target: Protein G′ (Sigma Chemical Co. product P-4689) (group G Streptococcal strain) (UniProt P19909); test: resonant light scattering; step B, 50 µg/mL mouse IgG on Protein G′ microparticles, 0.5 h; against the unbound reference
[16] = molecular target: Protein G′ (Sigma Chemical Co. product P-4689) (group G Streptococcal strain) (UniProt P19909); test: resonant light scattering, real time; 50 µg/mL mouse IgG on Protein G′ microparticles; time 30 min
[17] = molecular target: Protein G′ (Sigma Chemical Co. product P-4689) (group G Streptococcal strain) (UniProt P19909); test: resonant light scattering, real time; 500 µg/mL mouse IgG on Protein G′ microparticles; time 30 min
[18] = molecular target: Protein G′ (Sigma Chemical Co. product P-4689) (group G Streptococcal strain) (UniProt P19909); test: resonant light scattering, real time; 500 µg/mL mouse IgG on Protein G′ microparticles; time 11 min
[19] = molecular target: Protein G′ (Sigma Chemical Co. product P-4689) (group G Streptococcal strain) (UniProt P19909); test: resonant light scattering, real time; 10 µg/mL mouse IgG on Protein G′ microparticles
[20] = molecular target: Protein G′ (Sigma Chemical Co. product P-4689) (group G Streptococcal strain) (UniProt P19909); test: resonant light scattering, real time; 500 µg/mL mouse IgG on Protein G′ microparticles; time 16 min
[21] = molecular target: Protein G′ (Sigma Chemical Co. product P-4689) (group G Streptococcal strain) (UniProt P19909); test: resonant light scattering, real time; 10 µg/mL mouse IgG on Protein G′ microparticles; time 0 min (reference)
[22] = molecular target: Protein G′ (Sigma Chemical Co. product P-4689) (group G Streptococcal strain) (UniProt P19909); test: resonant light scattering, real time; 10 µg/mL mouse IgG on Protein G′ microparticles; time 35 min
[23] = molecular target: Protein G′ (Sigma Chemical Co. product P-4689) (group G Streptococcal strain) (UniProt P19909); test: resonant light scattering, real time; 500 µg/mL mouse IgG on Protein G′ microparticles; time 25 min
[24] = molecular target: Protein G′ (Sigma Chemical Co. product P-4689) (group G Streptococcal strain) (UniProt P19909); test: resonant light scattering, real time; 10 µg/mL mouse IgG on Protein G′ microparticles; time 30 min
[25] = molecular target: Protein G′ (Sigma Chemical Co. product P-4689) (group G Streptococcal strain) (UniProt P19909); test: resonant light scattering, real time; 10 µg/mL mouse IgG on Protein G′ microparticles; time 40 min
[26] = molecular target: Protein G′ (Sigma Chemical Co. product P-4689) (group G Streptococcal strain) (UniProt P19909); test: resonant light scattering, real time; 500 µg/mL mouse IgG on Protein G′ microparticles; time 35 min
[27] = molecular target: Protein G′ (Sigma Chemical Co. product P-4689) (group G Streptococcal strain) (UniProt P19909); test: resonant light scattering, real time; 10 µg/mL mouse IgG on Protein G′ microparticles; time 20 min
[28] = molecular target: Protein G′ (Sigma Chemical Co. product P-4689) (group G Streptococcal strain) (UniProt P19909); test: resonant light scattering, real time; 10 µg/mL mouse IgG on Protein G′ microparticles; time 5 min
[29] = molecular target: Protein G′ (Sigma Chemical Co. product P-4689) (group G Streptococcal strain) (UniProt P19909); test: resonant light scattering, real time; 500 µg/mL mouse IgG on Protein G′ microparticles; time 5 min
[30] = molecular target: Protein G′ (Sigma Chemical Co. product P-4689) (group G Streptococcal strain) (UniProt P19909); test: resonant light scattering, real time; 50 µg/mL mouse IgG on Protein G′ microparticles; time 35 min
[31] = molecular target: Protein G′ (Sigma Chemical Co. product P-4689) (group G Streptococcal strain) (UniProt P19909); test: resonant light scattering, real time; 50 µg/mL mouse IgG on Protein G′ microparticles; time 11 min
[32] = molecular target: mouse IgG (Sigma Chemical Co., product number I5381); test: resonant light scattering; step 3, 50 µg/mL rabbit anti-mouse IgG in step 2 background on mouse IgG microparticles; against the starting spectra

Substance: Fab specific goat anti-mouse IgG (Sigma Chemical Co. product M 6898) (antibody)
resonance wavelength shift [2]: 0.111 nm

Substance: biotinylated anti-bovine immunoglobulin G (IgG) [H+L] [Goat] (Rockland Inc., product number 601-1602) (antibody)
resonance wavelength shift [4]: 0.069 nm

Substance: rabbit anti-mouse IgG (H+L) (unconjugated, Pierce, product 31188) (antibody)
resonance wavelength shift [32]: 0.056 nm

The next lines start with the values.

resonance wavelength shift [1]: -0.005 nm
Substance: E. coli cellular extract proteins

resonance wavelength shift [3]: -0.004 nm
Substance: anti-Alexa Fluor 488 rabbit IgG (Molecular Probes, Inc. product number A-11094) (antibody)

wavelength shift [5]: 0.051 nm | wavelength shift [6]: 0.032 nm | wavelength shift [7]: 0.026 nm | wavelength shift [8]: 0.043 nm | wavelength shift [9]: 0.043 nm | wavelength shift [10]: 0 nm | wavelength shift [11]: 0.022 nm | wavelength shift [12]: 0.041 nm | wavelength shift [13]: 0.053 nm | wavelength shift [14]: 0 nm | resonance wavelength shift [15]: 0.054 nm | wavelength shift [16]: 0.058 nm | wavelength shift [17]: 0.054 nm | wavelength shift [18]: 0.049 nm | percent of the saturation binding level [19]: 70% | wavelength shift [20]: 0.05 nm | wavelength shift [21]: 0 nm | wavelength shift [22]: 0.036 nm | wavelength shift [23]: 0.052 nm | wavelength shift [24]: 0.036 nm | wavelength shift [25]: 0.041 nm | wavelength shift [26]: 0.054 nm | wavelength shift [27]: 0.03 nm | wavelength shift [28]: 0.01 nm | wavelength shift [29]: 0.037 nm | wavelength shift [30]: 0.06 nm | wavelength shift [31]: 0.037 nm
Substance: mouse IgG (Sigma Chemical Co., product number I5381) (antibody)

Source: patent US20050019842A1
